Experimental data taken from the supplement of paper PMC7877785.
± gives the uncertainty stated by the source.

Assay: self-splicing fitness, log relative to wild type (ln ratio); higher = more splicing; Tetrahymena group I intron in knt gene, E. coli kanamycin selection, DiMSum; sequences stand for … in CUCUCU…GGAGGGAAAAGUUAUCAGGCAUGCACCUGGUAGCUAGUCUUUAAACCAAUAGAUUGCAUCGGUUUAAAAGGCAAGACCGUCAAAUUGCGGGAAAGGGGUCAACAGCCGUUCAGUACCAAGUCUCAGGGGAAACUUUGAGAUGGCCUUGCAAAGGGUAUGGUAAUAAGCUGACGGACAUGGUCCUAACCACGCAGCCAAGUCCUAAGUCAACAGAUCUUCUGUUGAUAUGGAUGCAGUUCACAGACUAAAUGUCGGUCGGGGAAGAUGUAUUCUUCUCAUAAGAUAUAGUCGGACCUCUCCUUAAUGGGAGCUAGCGGAUGAAGUGAUGCAACACUGGAGCCGCUGGGAACUAAUUUGUAUGCGAAAGUAUAUUGAUUAGUUUUGGAGUACUCGUGGUCG
Procedure, shortened: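 Colonies from six replicate transformations of E. coli BL21(DE3) were pooled and amplicon-sequenced on an Illumina HiSeq 2500. The library placed an intron with all eight P1ex-region nucleotides randomised inside the knt kanamycin-resistance gene on pET-22b(+), and cells grew overnight at 37°C or 30°C on LB agar with or without 25 μg/mL kanamycin (plus 100 μg/mL carbenicillin, 50 μM IPTG, 0.2% rhamnose). Fitness is the DiMSum error-weighted combination of wild-type-normalised replicate fold changes, kanamycin versus none.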

Sequence | self-splicing fitness (ln) (30 °C) | self-splicing fitness (ln) (37 °C)
CAGUAGCAAUAUUACGUUAG | -1.32 ± 0.072 | 0.119 ± 0.096
UACCAGCAAUAUUACGAUGU | -1.9 ± 0.091 | -1.41 ± 0.11
UCUUAGCAAUAUUACGCGGU | -3.5 ± 0.2 | -2.76 ± 0.26
GCACAGCAAUAUUACGCCUG | -1.28 ± 0.087 | -0.89 ± 0.1
GGGCAGCAAUAUUACGCAGU | -0.715 ± 0.14 | -0.784 ± 0.18
UCGCAGCAAUAUUACGAAGG | -1.85 ± 0.096 | -0.846 ± 0.12
UGUUAGCAAUAUUACGACAA | -0.407 ± 0.18 | 0.123 ± 0.16
GUGGAGCAAUAUUACGUAAU | -2.23 ± 0.13 | -0.812 ± 0.13
UGAAAGCAAUAUUACGGCGA | -0.22 ± 0.1 | -0.0348 ± 0.099
GCGGAGCAAUAUUACGGUGC | -3.56 ± 0.49 | 
CAUCAGCAAUAUUACGGAGG | -1.24 ± 0.12 | -0.916 ± 0.14
UGCGAGCAAUAUUACGAUUA | -1.56 ± 0.13 | -1.1 ± 0.11
CCUGAGCAAUAUUACGUUGA | -3.7 ± 0.26 | -3.27 ± 0.25
CUCGAGCAAUAUUACGCUCA | -1.96 ± 0.27 | -2.15 ± 0.45
CGUGAGCAAUAUUACGAAUA | -2.8 ± 0.28 | -2.87 ± 0.32
CAAUAGCAAUAUUACGGUGG | -0.89 ± 0.081 | -0.133 ± 0.1
CCGCAGCAAUAUUACGUCGA | -1.06 ± 0.059 | -0.16 ± 0.069
CCUGAGCAAUAUUACGCCCU |  | -1.73 ± 0.33
UCUAAGCAAUAUUACGGGGG | -3.17 ± 0.22 | -0.678 ± 0.17
AAAGAGCAAUAUUACGUCCC | -2.1 ± 0.28 | -1.07 ± 0.35
AGAGAGCAAUAUUACGUAAU | -4.18 ± 0.33 | -2.81 ± 0.34
UUAGAGCAAUAUUACGCGUC | -2.56 ± 0.29 | 
GGGCAGCAAUAUUACGAGGU | -4.65 ± 0.38 | -2.77 ± 0.24
GGUCAGCAAUAUUACGAAGG | -0.594 ± 0.14 | -0.251 ± 0.22
UAUAAGCAAUAUUACGCAUG | -0.714 ± 0.12 | -0.154 ± 0.13
GCGCAGCAAUAUUACGACGA | 0.345 ± 0.15 | -0.247 ± 0.17

Sequence | self-splicing fitness (ln) (30 °C) | self-splicing fitness (ln) (37 °C)
UUUAAGCAAUAUUACGUCCA | -1.08 ± 0.22 | -0.324 ± 0.27
CUCAAGCAAUAUUACGCAAU | -3.56 ± 0.31 | -1.53 ± 0.32
UGGUAGCAAUAUUACGAGUA | -0.457 ± 0.19 | -0.963 ± 0.2
GCCAAGCAAUAUUACGAGUG | -2.32 ± 0.087 | -1.72 ± 0.093
AUUGAGCAAUAUUACGGGCU | -4.12 ± 0.36 | -2.25 ± 0.42
GUGAAGCAAUAUUACGAGAC | -2.62 ± 0.19 | -0.955 ± 0.12
GGCUAGCAAUAUUACGUGUA | -0.9 ± 0.093 | -0.236 ± 0.095
ACCUAGCAAUAUUACGGUAC | -3.75 ± 0.37 | -2.76 ± 0.26
GCUCAGCAAUAUUACGCAUC | -0.653 ± 0.079 | -0.186 ± 0.087
AGAAAGCAAUAUUACGCGAG | -1.28 ± 0.11 | -0.453 ± 0.13
CCUUAGCAAUAUUACGCCCG | -1 ± 0.13 | -1.49 ± 0.21
GGACAGCAAUAUUACGCGAG | -1.24 ± 0.058 | -0.0238 ± 0.063
AUACAGCAAUAUUACGUCCA | -1.17 ± 0.08 | -0.0617 ± 0.086
UUUUAGCAAUAUUACGUUUU | -3.49 ± 0.21 | -2.22 ± 0.27
ACGUAGCAAUAUUACGUCCG | -1.63 ± 0.12 | -0.705 ± 0.11
CUUAAGCAAUAUUACGAUAU | -3.29 ± 0.2 | -1.4 ± 0.17
UUUAAGCAAUAUUACGUUAA | -1.68 ± 0.23 | -1.38 ± 0.18
UUGAAGCAAUAUUACGAGUG | -0.347 ± 0.055 | -0.22 ± 0.077
CAGGAGCAAUAUUACGUUAG | -1.45 ± 0.084 | -0.918 ± 0.12
GGGUAGCAAUAUUACGCAUC | -2.34 ± 0.29 | -2.48 ± 0.24
ACCCAGCAAUAUUACGCCAA | -2.43 ± 0.15 | -2.03 ± 0.15
AUAUAGCAAUAUUACGAUGC | -2.89 ± 0.27 | -0.335 ± 0.22
UCGAAGCAAUAUUACGCGCU | -2.18 ± 0.2 | -0.209 ± 0.24
GCGCAGCAAUAUUACGGUUG | -2.53 ± 0.1 | -3.34 ± 0.19
UUCCAGCAAUAUUACGCAAG | -1.62 ± 0.07 | -0.644 ± 0.09
GCAGAGCAAUAUUACGCAGU | -3.61 ± 0.29 | -1.86 ± 0.3

Sequence | self-splicing fitness (ln) (30 °C) | self-splicing fitness (ln) (37 °C)
UCAAAGCAAUAUUACGAGUG | -0.846 ± 0.048 | -0.965 ± 0.067
ACCGAGCAAUAUUACGCGAU | -2.5 ± 0.14 | -1.73 ± 0.14
CACAAGCAAUAUUACGUUGG | -2.5 ± 0.091 | -1.76 ± 0.099
CAGAAGCAAUAUUACGGGUG | -0.824 ± 0.064 | -0.429 ± 0.08
GCGAAGCAAUAUUACGUACA | -1.9 ± 0.19 | -1.29 ± 0.14
UCAGAGCAAUAUUACGUUAU | -2.84 ± 0.19 | -3.42 ± 0.4
AGAGAGCAAUAUUACGUAUC |  | -2.03 ± 0.17
GGGGAGCAAUAUUACGACAU | -2.17 ± 0.022 | -1.15 ± 0.037
CCUAAGCAAUAUUACGUAUU | -4.79 ± 0.39 | -3.07 ± 0.2
UGGCAGCAAUAUUACGCACA | -1.24 ± 0.11 | -0.127 ± 0.12
GAGGAGCAAUAUUACGGCGG | -2.33 ± 0.2 | -1.7 ± 0.38
CCAUAGCAAUAUUACGCUAA | -3.38 ± 0.22 | -2.75 ± 0.32
GCUAAGCAAUAUUACGGGAC | -2.81 ± 0.13 | -1.53 ± 0.14
GCGGAGCAAUAUUACGGAGA | -2.07 ± 0.2 | -1.71 ± 0.41
CGCGAGCAAUAUUACGAUCU | -3.42 ± 0.21 | -1.66 ± 0.14
AGUUAGCAAUAUUACGAGAC | -3.11 ± 0.26 | -2.02 ± 0.27
CAUGAGCAAUAUUACGGCUG | -0.641 ± 0.073 | -0.532 ± 0.12
GUACAGCAAUAUUACGUUAC | -3.89 ± 0.36 | -2.27 ± 0.28
GCUAAGCAAUAUUACGUGAG | -0.321 ± 0.06 | -0.28 ± 0.071
CUUGAGCAAUAUUACGGUGG | -2.55 ± 0.13 | -1.52 ± 0.12
CUCCAGCAAUAUUACGAAAC | -3.94 ± 0.32 | -2.44 ± 0.26
AACGAGCAAUAUUACGCACC | -2.32 ± 0.42 | -1.65 ± 0.35
UUAUAGCAAUAUUACGGCGA | -1.38 ± 0.14 | -0.219 ± 0.18
AAUCAGCAAUAUUACGUAUU | -1.17 ± 0.053 | -0.697 ± 0.061
GGCAAGCAAUAUUACGUCAG | -4.5 ± 0.34 | -2.4 ± 0.26
